Here are results for four molecules from paper PMC9482650, “Quantitative fragmentomics allow affinity mapping of interactomes” (Nature Communications, 2022).

The term pKd denotes −log10 of the Kd, conventionally taken in molar units.

Targets include DLG2_3, Q15700; DLG5_1, Q8TDM6; GRID2IP_2, A4D2P6; GRIP2_5, Q9C0E4; IL16_1, Q14005; IL16_3, Q14005; Inadl_4, Q8NI35; MAST1, Q9Y2H9; NHERF2_2, Q15599; PARD3_3, Q8TEW0.
Test in all cases: holdup assay
Common to all, as to parameters: key: below the threshold = too weak to quantify, mostly under pKd 3.1 to 4

Another experiment has as its target T1, APBA1_1, Q02410.
T1 sequence (Q02410 651-752, limits assumed, looked up): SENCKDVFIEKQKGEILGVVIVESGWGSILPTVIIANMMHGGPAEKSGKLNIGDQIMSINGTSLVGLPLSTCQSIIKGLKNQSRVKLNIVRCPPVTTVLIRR

In the next experiment the target is T2, APBA1_2, Q02410.
T2 sequence (Q02410 742-832, limits assumed, looked up): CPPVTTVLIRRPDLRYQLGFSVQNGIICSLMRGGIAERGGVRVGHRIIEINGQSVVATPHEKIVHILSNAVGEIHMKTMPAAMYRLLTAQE

For another experiment, the target named is T3, APBA2_2, Q99767.
T3 sequence (Q99767 654-744, limits assumed, looked up): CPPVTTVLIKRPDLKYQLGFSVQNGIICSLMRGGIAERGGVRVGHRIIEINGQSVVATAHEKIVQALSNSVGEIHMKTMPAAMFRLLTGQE

In a further experiment the target is T4, ARHGEF11, O15085.
T4 sequence (O15085 42-136, limits assumed, looked up): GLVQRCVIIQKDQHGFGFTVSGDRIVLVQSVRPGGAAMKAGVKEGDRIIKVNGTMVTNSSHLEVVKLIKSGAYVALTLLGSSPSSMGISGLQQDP

For the next experiment, the target named is T5, DFNB31_1, Q9P202.
T5 sequence (Q9P202 135-233, limits assumed, looked up): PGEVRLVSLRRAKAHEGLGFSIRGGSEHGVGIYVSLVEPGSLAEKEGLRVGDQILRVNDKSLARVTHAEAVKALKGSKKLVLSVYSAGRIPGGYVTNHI

The next experiment concerns the target T6, DLG3_3, Q92796.
T6 sequence (Q92796 374-475, limits assumed, looked up): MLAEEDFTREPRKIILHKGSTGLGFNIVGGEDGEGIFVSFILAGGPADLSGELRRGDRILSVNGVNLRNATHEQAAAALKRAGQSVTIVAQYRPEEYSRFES

A further experiment addresses T7, GRIP1_2, Q9Y3R0.
T7 sequence (Q9Y3R0 145-248, limits assumed, looked up): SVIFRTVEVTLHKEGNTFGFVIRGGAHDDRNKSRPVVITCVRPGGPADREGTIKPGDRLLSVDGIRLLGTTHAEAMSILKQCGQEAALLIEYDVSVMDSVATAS

The target of a further experiment is T8, GRIP1_3, Q9Y3R0.
T8 sequence (Q9Y3R0 247-346, limits assumed, looked up): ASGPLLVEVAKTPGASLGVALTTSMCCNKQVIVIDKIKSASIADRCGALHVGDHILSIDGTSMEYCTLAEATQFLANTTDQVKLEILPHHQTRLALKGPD

The next experiment addresses T9, GRIP1_4, Q9Y3R0.
T9 sequence (Q9Y3R0 467-571, limits assumed, looked up): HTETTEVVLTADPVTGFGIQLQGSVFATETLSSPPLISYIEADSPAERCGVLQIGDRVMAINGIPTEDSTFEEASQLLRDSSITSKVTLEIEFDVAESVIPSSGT

Another experiment has as its target T10, HTRA4, P83105.
T10 sequence (P83105 378-476, limits assumed, looked up): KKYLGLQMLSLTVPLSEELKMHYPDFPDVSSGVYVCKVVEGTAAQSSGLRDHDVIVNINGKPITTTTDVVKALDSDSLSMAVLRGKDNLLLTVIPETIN

Another experiment deals with T11, MPP6, Q9NZW5.
T11 sequence (Q9NZW5 125-219, limits assumed, looked up): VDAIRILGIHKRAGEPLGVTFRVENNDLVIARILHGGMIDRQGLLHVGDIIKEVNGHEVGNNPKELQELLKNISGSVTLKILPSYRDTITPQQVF

For another experiment, the target named is T12, MPP7, Q5T2T1.
T12 sequence (Q5T2T1 134-230, limits assumed, looked up): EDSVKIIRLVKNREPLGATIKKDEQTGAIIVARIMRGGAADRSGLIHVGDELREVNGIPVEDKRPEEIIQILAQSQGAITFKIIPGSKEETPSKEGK

For another experiment, the target named is T13, PDZD7_3, Q9H5P4.
T13 sequence (Q9H5P4 857-944, limits assumed, looked up): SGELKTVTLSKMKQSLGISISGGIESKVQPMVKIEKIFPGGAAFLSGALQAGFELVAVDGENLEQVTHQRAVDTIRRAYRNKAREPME

In the next experiment the target is T14, SNTG2, Q9NY99.
T14 sequence (Q9NY99 68-166, limits assumed, looked up): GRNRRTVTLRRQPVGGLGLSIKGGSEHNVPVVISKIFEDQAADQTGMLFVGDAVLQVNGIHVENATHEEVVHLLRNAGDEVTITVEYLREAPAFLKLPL

The mark [1] stands for this setting: plain residues with an end cap or a label only (N-terminal biotin on a linker: (peg)3).
The mark [2] stands for this setting: plain residues with an end cap or a label only (N-terminal biotin on a linker: ado-ado).

Sequence of MAST1, Q9Y2H9 (Q9Y2H9 962-1065): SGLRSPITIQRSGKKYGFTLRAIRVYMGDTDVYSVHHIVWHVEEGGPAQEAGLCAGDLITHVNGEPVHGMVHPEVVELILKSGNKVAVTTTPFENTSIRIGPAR
Sequence of GRIP2_5, Q9C0E4 (Q9C0E4 544-642): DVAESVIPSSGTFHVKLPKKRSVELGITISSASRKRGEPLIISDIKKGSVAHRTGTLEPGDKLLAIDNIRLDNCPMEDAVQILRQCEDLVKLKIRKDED
Sequence of IL16_1, Q14005 (Q14005 210-306): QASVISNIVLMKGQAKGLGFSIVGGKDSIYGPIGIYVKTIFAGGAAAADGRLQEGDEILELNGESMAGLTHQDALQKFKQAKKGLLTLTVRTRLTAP
Sequence of IL16_3, Q14005 (Q14005 1107-1207): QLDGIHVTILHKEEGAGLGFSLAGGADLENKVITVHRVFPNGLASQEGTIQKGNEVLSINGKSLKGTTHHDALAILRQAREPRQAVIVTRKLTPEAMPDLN
Sequence of DLG5_1, Q8TDM6 (Q8TDM6 617-713): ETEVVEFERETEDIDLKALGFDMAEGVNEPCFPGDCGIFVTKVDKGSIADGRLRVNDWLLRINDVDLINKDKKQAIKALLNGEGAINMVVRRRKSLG
Sequence of Inadl_4, Q8NI35 (Q8NI35 547-651): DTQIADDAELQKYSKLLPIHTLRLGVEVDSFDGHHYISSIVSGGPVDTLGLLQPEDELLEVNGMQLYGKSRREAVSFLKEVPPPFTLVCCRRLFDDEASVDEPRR
Sequence of NHERF2_2, Q15599 (Q15599 142-238): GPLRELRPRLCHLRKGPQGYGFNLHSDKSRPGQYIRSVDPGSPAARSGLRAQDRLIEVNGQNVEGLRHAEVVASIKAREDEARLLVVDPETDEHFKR
Sequence of PARD3_3, Q8TEW0 (Q8TEW0 582-685): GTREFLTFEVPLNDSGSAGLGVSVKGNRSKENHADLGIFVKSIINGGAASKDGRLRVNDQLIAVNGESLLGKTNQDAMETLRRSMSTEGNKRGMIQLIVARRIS
Sequence of GRID2IP_2, A4D2P6 (A4D2P6 272-370): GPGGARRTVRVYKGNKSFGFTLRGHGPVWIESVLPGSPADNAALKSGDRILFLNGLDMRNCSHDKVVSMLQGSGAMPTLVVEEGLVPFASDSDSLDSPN

In the case of QQSMSSADSTQA [SARS-Cov2-N, P0DTC9], the pKd entry is given as “below the threshold” with APBA1_1, Q02410 (setting [1]); “below the threshold” in the experiment with APBA1_2, Q02410 (setting [1]); “below the threshold” with APBA2_2, Q99767 (setting [1]); “below the threshold” with ARHGEF11, O15085 (setting [1]); “below the threshold” with DFNB31_1, Q9P202 (setting [1]); “below the threshold” in the experiment with DLG2_3, Q15700 (setting [1]). In addition, the pKd result with DLG3_3, Q92796 (setting [1]) is recorded as “below the threshold”; with DLG5_1, Q8TDM6 (setting [1]), “below the threshold”; in the experiment with GRID2IP_2, A4D2P6 (setting [1]) it was “below the threshold”; with GRIP1_2, Q9Y3R0 (setting [1]) it was “below the threshold”; with GRIP1_3, Q9Y3R0 (setting [1]) it was “below the threshold”; with GRIP1_4, Q9Y3R0 (setting [1]) it was “below the threshold”. Further, the pKd result is “below the threshold” with GRIP2_5, Q9C0E4 (setting [1]); “below the threshold” with HTRA4, P83105 (setting [1]); “below the threshold” in the experiment with IL16_1, Q14005 (setting [1]); “below the threshold” in the experiment with IL16_3, Q14005 (setting [1]); “below the threshold” in the experiment with Inadl_4, Q8NI35 (setting [1]); “below the threshold” with MAST1, Q9Y2H9 (setting [1]). Also, the negative logarithm of the Kd (pKd) entry is “below the threshold” in the experiment with MPP6, Q9NZW5 (setting [1]); “below the threshold” in the experiment with MPP7, Q5T2T1 (setting [1]); “below the threshold” in the experiment with NHERF2_2, Q15599 (setting [1]); “below the threshold” in the experiment with PARD3_3, Q8TEW0 (setting [1]); “below the threshold” in the experiment with PDZD7_3, Q9H5P4 (setting [1]); “below the threshold” in the experiment with SNTG2, Q9NY99 (setting [1]).

EDPRVEVTQF [SLC22A9, Q8IVM8]: the pKd entry was “below the threshold” in the experiment with APBA1_1, Q02410 (setting [2]); “below the threshold” with APBA1_2, Q02410 (setting [2]); “below the threshold” with APBA2_2, Q99767 (setting [2]); “below the threshold” with ARHGEF11, O15085 (setting [2]); “below the threshold” with DFNB31_1, Q9P202 (setting [2]); 3.71 with DLG2_3, Q15700 (setting [2]). Further, the pKd result in the experiment with DLG3_3, Q92796 (setting [2]) is recorded as “below the threshold”; with DLG5_1, Q8TDM6 (setting [2]) it was “below the threshold”; with GRID2IP_2, A4D2P6 (setting [2]), “below the threshold”; with GRIP1_2, Q9Y3R0 (setting [2]), “below the threshold”; with GRIP1_3, Q9Y3R0 (setting [2]) it was “below the threshold”; with GRIP1_4, Q9Y3R0 (setting [2]), “below the threshold”. Moreover, the pKd result with GRIP2_5, Q9C0E4 (setting [2]) was “below the threshold”; with HTRA4, P83105 (setting [2]) it was “below the threshold”; in the experiment with IL16_1, Q14005 (setting [2]), “below the threshold”; with IL16_3, Q14005 (setting [2]) it was “below the threshold”; with Inadl_4, Q8NI35 (setting [2]), “below the threshold”; in the experiment with MAST1, Q9Y2H9 (setting [2]), 4.75. Besides, the pKd result was “below the threshold” with MPP6, Q9NZW5 (setting [2]); “below the threshold” with MPP7, Q5T2T1 (setting [2]); 4.61 with NHERF2_2, Q15599 (setting [2]); “below the threshold” with PARD3_3, Q8TEW0 (setting [2]); 4.23 in the experiment with PDZD7_3, Q9H5P4 (setting [2]); “below the threshold” with SNTG2, Q9NY99 (setting [2]).

Turning to LAHVKHKEQI [AQP3, Q92482], the pKd result with APBA1_1, Q02410 (setting [2]) is “below the threshold”; with APBA1_2, Q02410 (setting [2]), “below the threshold”; with APBA2_2, Q99767 (setting [2]), “below the threshold”; in the experiment with ARHGEF11, O15085 (setting [2]) it was “below the threshold”; with DFNB31_1, Q9P202 (setting [2]) it was “below the threshold”; in the experiment with DLG2_3, Q15700 (setting [2]), “below the threshold”. The pKd result is “below the threshold” with DLG3_3, Q92796 (setting [2]); “below the threshold” in the experiment with DLG5_1, Q8TDM6 (setting [2]); “below the threshold” with GRID2IP_2, A4D2P6 (setting [2]); “below the threshold” with GRIP1_2, Q9Y3R0 (setting [2]); “below the threshold” in the experiment with GRIP1_3, Q9Y3R0 (setting [2]); “below the threshold” with GRIP1_4, Q9Y3R0 (setting [2]). The pKd entry is “below the threshold” with GRIP2_5, Q9C0E4 (setting [2]); 3.79 in the experiment with HTRA4, P83105 (setting [2]); “below the threshold” with IL16_1, Q14005 (setting [2]); “below the threshold” with IL16_3, Q14005 (setting [2]); “below the threshold” in the experiment with Inadl_4, Q8NI35 (setting [2]); “below the threshold” with MAST1, Q9Y2H9 (setting [2]). Besides, the pKd entry is reported as “below the threshold” with MPP6, Q9NZW5 (setting [2]); “below the threshold” with MPP7, Q5T2T1 (setting [2]); “below the threshold” in the experiment with NHERF2_2, Q15599 (setting [2]); “below the threshold” in the experiment with PARD3_3, Q8TEW0 (setting [2]); “below the threshold” with PDZD7_3, Q9H5P4 (setting [2]); “below the threshold” in the experiment with SNTG2, Q9NY99 (setting [2]).

For the molecule APIAGFSSFV [SDK2, Q58EX2], the pKd entry with APBA1_1, Q02410 (setting [2]) is “below the threshold”; in the experiment with APBA1_2, Q02410 (setting [2]) it was 4.15; with APBA2_2, Q99767 (setting [2]), “below the threshold”; with ARHGEF11, O15085 (setting [2]) it was 3.72; with DFNB31_1, Q9P202 (setting [2]) it was 3.79; in the experiment with DLG2_3, Q15700 (setting [2]), “below the threshold”. Further, the pKd entry was “below the threshold” in the experiment with DLG3_3, Q92796 (setting [2]); “below the threshold” with DLG5_1, Q8TDM6 (setting [2]); 4.61 with GRID2IP_2, A4D2P6 (setting [2]); “below the threshold” in the experiment with GRIP1_2, Q9Y3R0 (setting [2]); “below the threshold” in the experiment with GRIP1_3, Q9Y3R0 (setting [2]); “below the threshold” with GRIP1_4, Q9Y3R0 (setting [2]). For the same molecule, the pKd entry with GRIP2_5, Q9C0E4 (setting [2]) was “below the threshold”; in the experiment with HTRA4, P83105 (setting [2]) it was “below the threshold”; with IL16_1, Q14005 (setting [2]), 4.06; in the experiment with IL16_3, Q14005 (setting [2]), “below the threshold”; with Inadl_4, Q8NI35 (setting [2]), “below the threshold”; in the experiment with MAST1, Q9Y2H9 (setting [2]) it was “below the threshold”. Moreover, the pKd entry with MPP6, Q9NZW5 (setting [2]) is “below the threshold”; with MPP7, Q5T2T1 (setting [2]), “below the threshold”; with NHERF2_2, Q15599 (setting [2]) it was 3.98; in the experiment with PARD3_3, Q8TEW0 (setting [2]), 3.56; with PDZD7_3, Q9H5P4 (setting [2]), 4.63; in the experiment with SNTG2, Q9NY99 (setting [2]) it was “below the threshold”.
